B1: FkpA (full-length, dimeric form) (natural protein, E. coli, UniProt P45523 26-270, looked up)
chain: AEAAKPATAADSKAAFKNDDQKSAYALGASLGRYMENSLKEQEKLGIKLDKDQLIAGVQDAFADKSKLSDQEIEQTLQAFEARVKSSAQAKMEKDAADNEAKGKEYREKFAKEKGVKTSSTGLVYQVVEAGKGEAPKDSDTVVVNYKGTLIDGKEFDNSYTRGEPLSFRLDGVIPGWTEGLKNIKKGGKIKLVIPPELAYGKAGVPGIPPNSTLVFDVELLDVKPAPKADAKPEADAKAADSAKK
B2: unfolded outer membrane protein X (uOmpX) (natural protein, E. coli, UniProt P0A917 24-171, looked up)
chain: ATSTVTGGYAQSDAQGQMNKMGGFNLKYRYEEDNSPLGVIGSFTYTEKSRTASSGDYNKNQYYGITAGPAYRINDWASIYGVVGVGYGKFQTTEYPTYKHDTSDYGFSYGAGLQFNPMENVALDFSYEQSRIRSVDVGTWIAGVGYRF

Assay [1] has as its target B2. Kind of assay: cell-based or functional assay.
For assay [2], the target named is unfolded β-barrel assembly machine A (uBamA) (UniProt P0A940 21-810). Kind of assay: AUC.
The target of assay [3] is B1. As to the kind of experiment: AUC.

As to B1, the “decrease of the OmpX folding rate into diC11PC LUVs with FkpA” value in assay [1] was 3 fold. The binding result in assay [2] was “binds”.

Turning to B2, in assay [3], the binding result is “binds”.

(Values after publication PMC10031210 (Protein Science : A Publication of the Protein Society, 2023).)
